{"source": "paper PMC12326988", "about": "“Synthetic host defense peptide inhibits SARS-CoV-2 replication in vitro” (Antimicrobial Agents and Chemotherapy, 2025)", "origin": "cited, not measured here", "test_system": "binding of the SARS-CoV-2 RBD to its human ACE2 receptor", "data": [{"molecule": "HD5 (peptide, UniProt Q01523 20-94, looked up, Defensin-5) Defensin alpha 5: ESLQERADEATTQKQSGEDNQDLAISFAGNGLSALRTSGSQARATCYCRTGRCATRESLSGVCEISGRLYRLCCR", "values": [{"measurement": "affinity, interference with binding of SARS-CoV-2 RBD to human ACE2", "value": 76.2, "unit": "nM"}]}]}
